Source: article PMC8550178, “Enzymatically synthesized exopolysaccharide of a probiotic strain Leuconostoc mesenteroides NTM048 shows adjuvant activity to promote IgA antibody responses” (Gut Microbes, 2021)

Tests used:
Assay in all cases: fructose release, DNS method
Settings in all cases: 20 mM sodium acetate pH 5.5, 1 mM CaCl2, 28°C, 5-200 mM sucrose
Gtf2 = test system: T1, Gtf2; type: biochemical, Leuconostoc mesenteroides subsp. mesenteroides
T1 construct: signal peptide removed, C-terminal His6 (pET23b), E. coli BL21(DE3); full-length precursor 1479 residues; draft genome BOPR01000001
Text: fructose release, DNS method on Gtf2

[1] = substrate: OC[C@H]1O[C@@](CO)(O[C@H]2O[C@H](CO)[C@@H](O)[C@H](O)[C@H]2O)[C@@H](O)[C@@H]1O; type: biochemical, Leuconostoc mesenteroides
Text: fructose release, DNS method on LEUM1747

[2] = substrate: OC[C@H]1O[C@@](CO)(O[C@H]2O[C@H](CO)[C@@H](O)[C@H](O)[C@H]2O)[C@@H](O)[C@@H]1O; type: biochemical, Leuconostoc mesenteroides; remark: listed apart in the source
Text: fructose release, DNS method on LEUM1752

In the case of OC[C@H]1O[C@@](CO)(O[C@H]2O[C@H](CO)[C@@H](O)[C@H](O)[C@H]2O)[C@@H](O)[C@@H]1O [sucrose], the Km (Gtf2) is reported as 23 mM.

B1: LEUM1747 (Leuconostoc mesenteroides subsp. mesenteroides ATCC 8293) (protein)
chain: TPSVLGDSSVPDVSANNVQSASDNTTDTQQNTTVTEENDKVQSAATNDNVTTAASDTTQSADNNVTEKQSDDHALDNEKVDNKQDEVAQTNVTSKDEESAVASTDTDPAETTTDETQQVSGKYVEKDGSWYYYFDDGKNAKGLSTIDNNIQYFDESGKQVKGQYVTIDNQTYYFDKDSGDELTGLQSIDGNIVAFNDEGQQIFNQYYQSENGTTYYFDDKGHAATGIKNIEGKNYYFDNLGQLKKGFSGVIDGQIMTFDQETGQEVSNTTSEIKEGLTTQNTDYSEHNAAHGTDAEDFENIDGYLTASSWYRPTDILRNGTDWEPSTDTDFRPILSVWWPDKNTQVNYLNYMADLGFISNADSFETGDSQSLLNEASNYVQKSIEMKISAQQSTEWLKDAMAAFIVTQPQWNETSEDMSNDHLQNGALTYVNSPLTPDANSNFRLLNRTPTNQTGEQAYNLDNSKGGFELLLANDVDNSNPVVQAEQLNWLYYLMNFGTITANDADANFDGIRVDAVDNVDADLLQIAADYFKLAYGVDQNDATANQHLSILEDWSHNDPLYVTDQGSNQLTMDDYVHTQLIWSLTKSSDIRGTMQRFVDYYMVDRSNDSTENEAIPNYSFVRAHDSEVQTVIAQIVSDLYPDVENSLAPTTEQLAAAFKVYNEDEKLADKKYTQYNMASAYAMLLTNKDTVPRVYYGDLYTDDGQYMATKSPYYDAINTLLKARVQYVAGGQSMSVDSNDVLTSVRYGKDAMTASDTGTSETRTEGVGVIVSNNAELQLEDGHTVTLHMGAAHKNQAYRALLSTTADGLAYYDTDENAPVAYTDANGDLIFTNESIYGVQNPQVSGYLAVWVPVGAQQDQDARTASDTTTNTSDKVFHSNAALDSQVIYEGFSNFQAFATDSSEYTNVVIAQNADQFKQWGVTSFQLAPQYRSSTDTSFLDSIIQNGYAFTDRYDLGYGTPTKYGTADQLRDAIKALHASGIQAIADWVPDQIYNLPEQELATVTRTNSFGDDDTDSDIDNALYVVQSRGGGQYQEMYGGAFLEELQALYPSLFKVNQISTGVPIDGSVKITEWAAKYFNGSNIQGKGAGYVLKDMGSNKYFKVVSNTEDGDYLPKQLTNDLSETGFTHDDKGIIYYTLSGYRAQNAFIQDDDNNYYYFDKTGHLVTGLQKINNHTYFFLPNGIELVKSFLQNEDGTIVYFDKKGHQVFDQYITDQNGNAYYFDDAGVMLKSGLATIDGHQQYFDQNGVQVKDKFVIGTDGYKYYFEPGSGNLAILRYVQNSKNQWFYFDGNGHAVTGFQTINGKKQYFYNDGHQSKGEFIDADGDTFYTSATDGRLVTGVQKINGITYAFDNTGNLITNQYYQLADGKYMLLDDSGRAKTGFVLQDGVLRYFDQNGEQVKDAIIVDPDTNLSYYFNATQGVAVKNDYFEYQGNWYLTDANYQLIKGFKAVDDSLQHFDEVTGVQTKDSALISAQGKVYQFDNNGNAVSA
notes: signal peptide removed, C-terminal His6 (pET23b), E. coli BL21(DE3)
With B1 the Km [1] was 2.5 × 10^1 ± 0.2 mM and the kcat/Km [1] was 1400 M⁻¹ s⁻¹.

B2: LEUM1752 (Leuconostoc mesenteroides subsp. mesenteroides ATCC 8293) (protein)
chain: DVSQNNGVVVATAVDQSNLDATTSDKSITTDDKAATTAATSTDDKATTTVATSTDDKDTTTAATSTDDKATTTVATSTDDKATTTAATSTDDKAATTAATSTDDKAATTAATSTDDKAATTADTSTDDKAATTAATSTDDKATTTAATSTDDKTATTVGTSDNNNSATASDKDVSSSAQKSQTIDNNSKTADTTAALEASSKNLKTIDGKTYYYDDDDQVKKNFATVIDGKVLYFDKETGALADTNDYQFLEGLTSENNTYTEHNASVGTSSDSYTNVDGYLTADSWYRPKDILVNGQNWESSKDDDLRPLLMTWWPDKATQVNYLNAMKYLDATETETVYTSDDSQDALNKAAQNIQVKIEEKISQEGQTQWLKDDISKFVDSQSNWNIASESKGTDHLQGGALLYVNSDKTPDANSDYRLLNRTPTNQTGTPLYTTDPTQGGYDFLLANDVDNSNPVVQAEQLNWMYYLLNFGSITNNDADANFDSIRVDAVDNVDADLLQIAADYFKAAYGVDKSDAISNQHVSILEDWSDNDAEYVKDNGDNQLSMDNKLRLSLKYSLTMPAVDQYGNKRSGLEPFLTNSLVDRTNDSTDNTAQPNYSFVRAHDSEVQTVIAEIIKQRIDPDSDGLSPTMDQLTEAFKIYNADQLKTDKEFTQYNIPSTYATILTNKDTVPRVYYGDMYTDDGQYMATKSLYYDAIDTLLKSRIKYVSGGQTMSMKYMQGDSSMAADSYRGILTSVRYGNGAMTATDAGTNETRTQGIAVIESNNPDLKLSSTDQVVVDMGIAHKNQAYRPALLTTKDGIDTYVSDSDVSQSLIRYTNSNGQLIFNSSDIVGTANPQVSGYLAVWVPVGASDTQDARTESSTATTADGQTLHSNAALDSQVIYESFSNFQSTPTTEAEYANVQIANNTDLYKSWGITNFEFPPQYRSSTDSSFLDSIIQNGYAFTDRYDLGFNTPTKYGTVDQLRTAIKALHATGIKAMADWVPDQIYNLTGKEVVAVQRVNNSGIYNQDSVINKTLYASQTVGGGEYQALYGGEFLDEIKKLYPSLFEKNQISTGVPMDASEKIKEWSAKYFNGTNIQGRGAYYVLKDWATNEYFKVSTSSNSSVFLPKQLTNEESNTGFISTDGGMTYYSTSGYQAKDTFIQDDKSNWYYFDKNGYMTYGFQTVNDNNYYFLPNGIELQDAILEDSKGNVYYFNQYGKQAVDGYYMLANKTWRYFDKNGVMANAGLTTVTVDGQEHIQYFDKNGIQVKGTSVKDADGKLRYFDTDSGDMVTNRFGENTDGTWSYFGADGIAVTGAQTISGQKLFFDADGQQIKGKEATDKKGKVHYYDANSGEMITNRFEKLSDGSWAYFNKKGNIVTGAQVINGQHLFFESNGNQVKGREYTATDGKMRYYDADSGDMVTNRFERISDGSWAYFGANGVAVTGEQNINGQQLYFDANGHQVKGAAVTQADGSQKYYDANSGEMIKS
notes: as for B1
For B2, the Km [2] was 1.9 × 10^1 ± 0.1 mM and the kcat/Km [2] was 1300 M⁻¹ s⁻¹.
